The target of this test is labeled control protein (BSA) (UniProt P02769 25-607). Briefly: membrane-immobilized flagellin bait, biotinylated prey, streptavidin-HRP.
Chain of labeled control protein (BSA) (P02769 25-607 limits assumed): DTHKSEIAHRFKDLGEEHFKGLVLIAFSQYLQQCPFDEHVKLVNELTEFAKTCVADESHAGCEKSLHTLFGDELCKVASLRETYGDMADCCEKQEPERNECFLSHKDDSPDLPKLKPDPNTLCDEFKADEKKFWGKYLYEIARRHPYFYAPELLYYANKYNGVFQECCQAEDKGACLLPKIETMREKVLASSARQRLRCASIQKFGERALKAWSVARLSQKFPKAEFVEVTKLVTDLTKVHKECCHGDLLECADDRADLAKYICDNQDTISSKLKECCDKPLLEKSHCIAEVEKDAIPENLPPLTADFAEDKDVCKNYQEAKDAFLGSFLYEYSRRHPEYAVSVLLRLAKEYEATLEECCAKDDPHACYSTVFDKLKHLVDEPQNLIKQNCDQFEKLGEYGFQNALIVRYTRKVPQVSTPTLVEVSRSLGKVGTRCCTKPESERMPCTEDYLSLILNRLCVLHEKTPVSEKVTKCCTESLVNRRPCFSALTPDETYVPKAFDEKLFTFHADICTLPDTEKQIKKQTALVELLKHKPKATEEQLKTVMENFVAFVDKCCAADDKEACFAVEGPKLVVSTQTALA

B1: flagellin FliC, serotype H48, of E. coli K-12 (MG1655) (other)
chain: AQVINTNSLSLITQNNINKNQSALSSSIERLSSGLRINSAKDDAAGQAIANRFTSNIKGLTQAARNANDGISVAQTTEGALSEINNNLQRVRELTVQATTGTNSESDLSSIQDEIKSRLDEIDRVSGQTQFNGVNVLAKNGSMKIQVGANDNQTITIDLKQIDAKTLGLDGFSVKNNDTVTTSAPVTAFGATTTNNIKLTGITLSTEAATDTGGTNPASIEGVYTDNGNDYYAKITGGDNDGKYYAVTVANDGTVTMATGATANATVTDANTTKATTITSGGTPVQIDNTAGSATANLGAVSLVKLQDSKGNDTDTYALKDTNGNLYAADVNETTGAVSVKTITYTDSSGAASSPTAVKLGGDDGKTEVVDIDGKTYDSADLNGGNLQTGLTAGGEALTAVANGKTTDPLKALDDAIASVDKFRSSLGAVQNRLDSAVTNLNNTTTNLSEAQSRIQDADYATEVSNMSKAQIIQQAGNSVLAKANQVPQQVLSLLQG
notes: also called FliCH48; FliC (H48)
As to B1, the binding result was “no binding (tested: 10 µg/ml)”.

Values taken from patent publication US20110206694A1 (UNIVERSITY OF TENNESSEE RESEARCH FOUNDATION, published 2011).
